B1: Azoarcus group I ribozyme (parent)
chain: GUGCCUUGCGCCGGGAAACCACGCAAGGGAUGGUGUCAAAUUCGGCGAAACCUAAGCGCCCGCCCGGGCGUAUGGCAACGCCGAGCCAAGCUUCGGCGCCUGCGCCGAUGAAGGUGUAGAGACUAGACGGCACCCACCUAAGGCAAACGCUAUGGUGAAGGCAUAGUCCAGGGAGUGGCGAAAGUCACACAAACCGG

Variants of: B1
Test: reverse-splicing fitness (ratio to wild type); higher = more active; in vitro selection; Mg2+ level not given
Outline: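 An in vitro group I ribozyme library with randomized positions was T7-transcribed and gel-purified. In triplicate, 10 pmol RNA in EPPS pH 7.5 was reacted with 50 pmoles of a 30-nt RNA substrate for 1 h at 37 °C across several added MgCl2 levels (1–48 mM), then stopped with EDTA. Products were reverse transcribed from a substrate-complementary primer, PCR-amplified and sequenced (HiSeq 4000). Fitness is a variant's read proportion after selection over that before, normalised to wild type.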

| Variant | reverse-splicing fitness |
| --- | --- |
| C82U A111U A120U A145G C150A C169A U176C | 0.00382 |
| C82U A111U A120U A145G C150A C169A U176G | 0.00245 |
| C82U A111U A120U A145G C150A C169G | 0.00478 |
| C82U A111U A120U A145G C150A C169G U176A | 0.00789 |
| C82U A111U A120U A145G C150A C169G U176C | 0.0045 |
| C82U A111U A120U A145G C150A C169G U176G | 0.00241 |
| C82U A111U A120U A145G C150A C169U | 0.00374 |
| C82U A111U A120U A145G C150A C169U U176A | 0.00439 |
| C82U A111U A120U A145G C150A C169U U176C | 0.00345 |
| C82U A111U A120U A145G C150A C169U U176G | 0.00228 |
| C82U A111U A120U A145G C150A U176A | 0.00691 |
| C82U A111U A120U A145G C150A U176C | 0.00627 |
| C82U A111U A120U A145G C150A U176G | 0.00271 |
| C82U A111U A120U A145G C150G | 0.00817 |
| C82U A111U A120U A145G C150G C169A | 0.00819 |
| C82U A111U A120U A145G C150G C169A U176A | 0.0098 |
| C82U A111U A120U A145G C150G C169A U176C | 0.00711 |
| C82U A111U A120U A145G C150G C169A U176G | 0.00474 |
| C82U A111U A120U A145G C150G C169G | 0.00647 |
| C82U A111U A120U A145G C150G C169G U176A | 0.00749 |
| C82U A111U A120U A145G C150G C169G U176C | 0.00477 |

| Variant | reverse-splicing fitness |
| --- | --- |
| C82U A111U A120U A145G C150G C169G U176G | 0.00365 |
| C82U A111U A120U A145G C150G C169U | 0.00706 |
| C82U A111U A120U A145G C150G C169U U176A | 0.00611 |
| C82U A111U A120U A145G C150G C169U U176C | 0.0058 |
| C82U A111U A120U A145G C150G C169U U176G | 0.00345 |
| C82U A111U A120U A145G C150G U176A | 0.00562 |
| C82U A111U A120U A145G C150G U176C | 0.00721 |
| C82U A111U A120U A145G C150G U176G | 0.00324 |
| C82U A111U A120U A145G C150U | 0.022 |
| C82U A111U A120U A145G C150U C169A | 0.00562 |
| C82U A111U A120U A145G C150U C169A U176A | 0.00543 |
| C82U A111U A120U A145G C150U C169A U176C | 0.0032 |
| C82U A111U A120U A145G C150U C169A U176G | 0.00269 |
| C82U A111U A120U A145G C150U C169G | 0.0051 |
| C82U A111U A120U A145G C150U C169G U176A | 0.00606 |
| C82U A111U A120U A145G C150U C169G U176C | 0.00383 |
| C82U A111U A120U A145G C150U C169G U176G | 0.00243 |
| C82U A111U A120U A145G C150U C169U | 0.00435 |
| C82U A111U A120U A145G C150U C169U U176A | 0.00396 |
| C82U A111U A120U A145G C150U C169U U176C | 0.00399 |
| C82U A111U A120U A145G C150U C169U U176G | 0.00209 |

| Variant | reverse-splicing fitness |
| --- | --- |
| C82U A111U A120U A145G C150U U176A | 0.00787 |
| C82U A111U A120U A145G C150U U176C | 0.0115 |
| C82U A111U A120U A145G C150U U176G | 0.00322 |
| C82U A111U A120U A145G C169A | 0.0029 |
| C82U A111U A120U A145G C169A U176A | 0.00289 |
| C82U A111U A120U A145G C169A U176C | 0.00291 |
| C82U A111U A120U A145G C169A U176G | 0.00171 |
| C82U A111U A120U A145G C169G | 0.00363 |
| C82U A111U A120U A145G C169G U176A | 0.00271 |
| C82U A111U A120U A145G C169G U176C | 0.0035 |
| C82U A111U A120U A145G C169G U176G | 0.00146 |
| C82U A111U A120U A145G C169U | 0.00389 |
| C82U A111U A120U A145G C169U U176A | 0.00304 |
| C82U A111U A120U A145G C169U U176C | 0.00323 |
| C82U A111U A120U A145G C169U U176G | 0.00207 |
| C82U A111U A120U A145G U176A | 0.00732 |
| C82U A111U A120U A145G U176C | 0.0112 |
| C82U A111U A120U A145G U176G | 0.00331 |
| C82U A111U A120U A145U | 0.0252 |
| C82U A111U A120U A145U C150A | 0.00625 |
| C82U A111U A120U A145U C150A C169A | 0.00215 |

| Variant | reverse-splicing fitness |
| --- | --- |
| C82U A111U A120U A145U C150A C169A U176A | 0.00233 |
| C82U A111U A120U A145U C150A C169A U176C | 0.00283 |
| C82U A111U A120U A145U C150A C169A U176G | 0.00206 |
| C82U A111U A120U A145U C150A C169G | 0.00254 |
| C82U A111U A120U A145U C150A C169G U176A | 0.00311 |
| C82U A111U A120U A145U C150A C169G U176C | 0.00231 |
| C82U A111U A120U A145U C150A C169G U176G | 0.00192 |
| C82U A111U A120U A145U C150A C169U | 0.00279 |
| C82U A111U A120U A145U C150A C169U U176A | 0.00233 |
| C82U A111U A120U A145U C150A C169U U176C | 0.00234 |
| C82U A111U A120U A145U C150A C169U U176G | 0.00195 |
| C82U A111U A120U A145U C150A U176A | 0.00357 |
| C82U A111U A120U A145U C150A U176C | 0.00477 |
| C82U A111U A120U A145U C150A U176G | 0.00252 |
| C82U A111U A120U A145U C150G | 0.00727 |
| C82U A111U A120U A145U C150G C169A | 0.0034 |
| C82U A111U A120U A145U C150G C169A U176A | 0.0028 |
| C82U A111U A120U A145U C150G C169A U176C | 0.00272 |
| C82U A111U A120U A145U C150G C169A U176G | 0.00213 |
| C82U A111U A120U A145U C150G C169G | 0.00274 |
| C82U A111U A120U A145U C150G C169G U176A | 0.0029 |
